These results are taken from paper PMC6482012.

This experiment has as its target p62 (SQSTM1) (UniProt Q13501). As to the kind of experiment: GST pulldown after in vitro AMPK reaction. The conditions noted are these: reference: WT GST-KHK-A without AMPK; sites S80.

As for “KHK-A (fructokinase A, ketohexokinase A) (from UniProt P50053-2) WT GST-KHK-A incubated with active AMPK”, the “binding against the reference” value is reported as “stronger”.
